Measurements: paper PMC8034659

Assays:
Experiment in all cases: SPR
[1] = molecular target: T1, TrfA R169E (plasmid RK2, UniProt P07676 98-382, R169E;G254D;S267L)
T1 sequence: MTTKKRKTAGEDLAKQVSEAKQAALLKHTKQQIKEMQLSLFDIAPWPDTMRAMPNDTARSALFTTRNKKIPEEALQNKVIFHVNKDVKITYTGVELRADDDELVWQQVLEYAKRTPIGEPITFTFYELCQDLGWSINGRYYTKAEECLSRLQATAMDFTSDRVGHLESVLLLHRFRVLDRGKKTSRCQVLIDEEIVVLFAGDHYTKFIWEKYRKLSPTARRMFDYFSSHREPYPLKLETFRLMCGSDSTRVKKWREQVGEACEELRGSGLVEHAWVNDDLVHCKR

[2] = molecular target: T2, TrfA R236E (plasmid RK2, UniProt P07676 98-382, R236E;G254D;S267L)
T2 sequence: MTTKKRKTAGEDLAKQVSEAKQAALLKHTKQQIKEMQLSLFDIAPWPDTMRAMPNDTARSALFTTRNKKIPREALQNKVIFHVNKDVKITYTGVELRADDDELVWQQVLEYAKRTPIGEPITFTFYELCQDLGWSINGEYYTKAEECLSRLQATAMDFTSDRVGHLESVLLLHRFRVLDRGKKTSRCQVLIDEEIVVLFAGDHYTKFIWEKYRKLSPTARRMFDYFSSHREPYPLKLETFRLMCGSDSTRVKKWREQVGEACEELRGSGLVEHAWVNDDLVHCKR

[3] = molecular target: T3, TrfA A171T (plasmid RK2, UniProt P07676 98-382, A171T;G254D;S267L)
T3 sequence: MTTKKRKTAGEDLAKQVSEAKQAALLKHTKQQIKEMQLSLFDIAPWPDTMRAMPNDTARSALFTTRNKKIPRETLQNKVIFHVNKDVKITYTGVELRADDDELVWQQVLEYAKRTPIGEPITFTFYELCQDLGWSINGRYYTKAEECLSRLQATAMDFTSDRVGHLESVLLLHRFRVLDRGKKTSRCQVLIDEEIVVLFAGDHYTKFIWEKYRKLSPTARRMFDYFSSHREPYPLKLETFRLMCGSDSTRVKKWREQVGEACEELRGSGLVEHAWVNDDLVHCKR

[4] = molecular target: T4, TrfA P151S/E361K (plasmid RK2, UniProt P07676 98-382, P151S;G254D;S267L;E361K)
T4 sequence: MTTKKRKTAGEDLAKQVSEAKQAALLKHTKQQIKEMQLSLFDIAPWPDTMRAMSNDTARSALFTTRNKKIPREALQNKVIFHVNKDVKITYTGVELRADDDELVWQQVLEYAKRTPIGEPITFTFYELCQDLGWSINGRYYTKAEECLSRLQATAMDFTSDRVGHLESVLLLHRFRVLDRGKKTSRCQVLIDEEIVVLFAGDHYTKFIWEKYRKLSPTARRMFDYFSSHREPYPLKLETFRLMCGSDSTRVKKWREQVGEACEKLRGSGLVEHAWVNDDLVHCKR

[5] = molecular target: T5, TrfA K165E (plasmid RK2, UniProt P07676 98-382, K165E;G254D;S267L)
T5 sequence: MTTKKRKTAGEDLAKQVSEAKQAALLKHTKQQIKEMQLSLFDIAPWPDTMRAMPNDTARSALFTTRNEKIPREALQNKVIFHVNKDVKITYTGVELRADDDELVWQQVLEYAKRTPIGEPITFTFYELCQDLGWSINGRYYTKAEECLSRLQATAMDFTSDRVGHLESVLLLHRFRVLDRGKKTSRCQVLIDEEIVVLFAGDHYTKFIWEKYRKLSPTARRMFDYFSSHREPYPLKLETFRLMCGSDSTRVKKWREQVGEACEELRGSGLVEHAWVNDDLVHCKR

[6] = molecular target: T6, TrfA wt (G254D/S267L, 33 kDa) (plasmid RK2, UniProt P07676 98-382, G254D;S267L)
T6 sequence: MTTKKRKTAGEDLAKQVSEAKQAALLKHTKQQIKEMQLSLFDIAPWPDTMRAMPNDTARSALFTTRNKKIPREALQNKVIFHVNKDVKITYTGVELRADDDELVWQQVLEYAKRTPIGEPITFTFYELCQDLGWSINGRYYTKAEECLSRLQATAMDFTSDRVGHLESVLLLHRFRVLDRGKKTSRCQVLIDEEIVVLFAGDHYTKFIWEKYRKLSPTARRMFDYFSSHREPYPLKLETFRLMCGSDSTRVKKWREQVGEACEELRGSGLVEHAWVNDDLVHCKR

[7] = molecular target: T7, TrfA P168E (plasmid RK2, UniProt P07676 98-382, P168E;G254D;S267L)
T7 sequence: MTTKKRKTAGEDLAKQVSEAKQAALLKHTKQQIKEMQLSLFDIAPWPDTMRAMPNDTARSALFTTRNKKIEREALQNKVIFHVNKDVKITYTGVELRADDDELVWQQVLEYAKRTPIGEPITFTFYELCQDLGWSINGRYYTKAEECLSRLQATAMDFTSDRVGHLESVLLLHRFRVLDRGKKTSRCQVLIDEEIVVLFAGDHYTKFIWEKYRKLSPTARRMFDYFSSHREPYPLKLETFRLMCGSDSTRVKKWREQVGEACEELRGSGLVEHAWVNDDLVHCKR

B1: five RK2 iterons (ItT/ItB) (dsDNA)
DNA 1: CCTGCGGTATTGACACTTGAGGGGCGCGACTACTGACAGATGAGGGGCGCGATCCTTGACACTTGAGGGGCAGAGTGATGACAGATGAGGGGCGCACCTATTGACATTTGAGGGGCTGTCCACAGGCAG
DNA 2: CTGCCTGTGGACAGCCCCTCAAATGTCAATAGGTGCGCCCCTCATCTGTCATCACTCTGCCCCTCAAGTGTCAAGGATCGCGCCCCTCATCTGTCAGTAGTCGCGCCCCTCAAGTGTCAATACCGCAGG
[1]
  binding result: no binding
[2]
  binding result: no binding
[3]
  binding result: binds
[4]
  binding result: binds
[5]
  binding result: no binding
[6]
  binding result: binds
[7]
  binding result: binds
